Test results reported in patent US20100226906.

Columns and labels:
[1] = target: T1, synthetic gamma poly-glutamate 30mer containing both D- and L-glutamate (15 D- and 15 L-residues) (not fully specified)
T1 chain: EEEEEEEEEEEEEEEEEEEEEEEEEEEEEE

[2] = target: T2, synthetic gamma poly-glutamate peptide of 30 D-glutamate residues
T2 chain: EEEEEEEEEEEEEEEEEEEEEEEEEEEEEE

[3] = target: T3, synthetic gamma poly-glutamate peptide of 30 L-glutamate residues
T3 chain: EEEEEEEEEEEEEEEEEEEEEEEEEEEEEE

B1: recombinant poly-γ-glutamate hydrolase (PghP) of bacteriophage φNIT1 (protein)
chain: MAQTDTYPNIEALENAETVGVAYNIEVKRQNPSMIYFSPHAGGIEVGTTELIYRVVELTGGSLYLFQGLLPSGNSRLHVTSTHFDEPMAVCMLSKHTDAVSFHGYKDDYNKNTLVGGLNTELRNLIVSKLNSKGIAAEVATDRFTATDPDNIVNRCASGKGVQLEISSAQRRAFFQNNDWSKANRGNVTQEFLDYAEAIKEAEAEYYG
For B1, the “hydrolysis of synthetic 30mer (digestion with purified enzyme, SDS tricine PAGE)” value (“hydrolysis of synthetic 30mer” for short) [1] was “complete hydrolysis of L- and 30mers containing both D- and L-was observed”, the “hydrolysis of synthetic 30mer” value [2] was “No hydrolysis of the D-polyglutamate was seen” and the “hydrolysis of synthetic 30mer” value [3] was “complete hydrolysis of L- and 30mers containing both D- and L-was observed”.
